From patent US20260125455A1 (CLEVELAND CLINIC FOUNDATION, published 2026) come the findings set out here.

Test [1] has as its target human complement protein C5 (human, UniProt P01031 19-673; P01031 678-1676). Nature of the test: ELISA, C5-coated wells. The protocol: The 20 purified antibodies were tested by ELISA for their abilities to bind human complement proteins C5, C5b6 and C6. The antibodies were divided into two sets for this analysis. MoC601 HuG4K and HuG4K isotype controls were included alongside each set, as was C601HFKC4 HuG4K (aka 3713) expression supernatant from the original transfection as an additional positive control. In addition, three humanized antibodies (C601HFKC4 HuG4K, C601HPKI HuG4K and C601HPKC4 HuG4K) were included within both sets to allow better comparison between the plates. The antibodies all show specificity for C6 with no detectable binding to C5. All humanized antibodies bind to C6 and to C6 as part of the C5b6 complex. The lower plateaus of the C5b6 complex binding curves are explained by less C6 protein being available for binding when wells are coated with C5b6 complex as opposed to C6 alone. […] The EC₅₀ values are included in the figure but slightly different plateau levels observed for the antibodies are influencing the apparent EC₅₀ values. However, it was noted that the EC₅₀ values tended to be lower on the plates for the second set of antibodies. For this reason, a subset of the 20 antibodies was tested in a further ELISA for binding to C6 and C5b6 complex.
Binding ELISAs used Nunc Maxisorp 384-well plates, wells coated with C6, C5b,6 complex or C5 (Complement Technology Inc, TX) and goat anti-human IgG (Fab specific) peroxidase secondary antibodies (Sigma-Aldrich, A0293) for detection. For the thermal stability assay, IgG supernatants were diluted to their EC₈₀ concentration, incubated at different temperatures for 10 min and C6 binding measured by ELISA with the binding signal plotted against temperature. Kinetics of C6 binding were measured by capturing antibodies from supernatant samples using Protein G biosensors and performing a 20 min association step with 2.5 nM C6 and a 20 min dissociation step using the Octet RED96. Precise kinetic measurements were obtained by surface plasmon resonance (Biacore 8K, Cytiva). The IgG were captured on a protein G sensor chip. Binding of C6 measured using a three-fold concentration series of C6 from 0.03 nM-25 nM and data were fitted using a 1:1 model in two independent experiments.
On the technique in general: ELISA stands for enzyme-linked immunosorbent assay.

Test [2] addresses T1, human complement protein C6 (human, UniProt P13671 22-934).
T1 construct: also called human C6; C6 antigen
As to the kind of experiment: BLI (Octet), antibody on Protein G biosensors, 1:1 fit, experiment 1.

T1 sequence (P13671 22-934 limits assumed): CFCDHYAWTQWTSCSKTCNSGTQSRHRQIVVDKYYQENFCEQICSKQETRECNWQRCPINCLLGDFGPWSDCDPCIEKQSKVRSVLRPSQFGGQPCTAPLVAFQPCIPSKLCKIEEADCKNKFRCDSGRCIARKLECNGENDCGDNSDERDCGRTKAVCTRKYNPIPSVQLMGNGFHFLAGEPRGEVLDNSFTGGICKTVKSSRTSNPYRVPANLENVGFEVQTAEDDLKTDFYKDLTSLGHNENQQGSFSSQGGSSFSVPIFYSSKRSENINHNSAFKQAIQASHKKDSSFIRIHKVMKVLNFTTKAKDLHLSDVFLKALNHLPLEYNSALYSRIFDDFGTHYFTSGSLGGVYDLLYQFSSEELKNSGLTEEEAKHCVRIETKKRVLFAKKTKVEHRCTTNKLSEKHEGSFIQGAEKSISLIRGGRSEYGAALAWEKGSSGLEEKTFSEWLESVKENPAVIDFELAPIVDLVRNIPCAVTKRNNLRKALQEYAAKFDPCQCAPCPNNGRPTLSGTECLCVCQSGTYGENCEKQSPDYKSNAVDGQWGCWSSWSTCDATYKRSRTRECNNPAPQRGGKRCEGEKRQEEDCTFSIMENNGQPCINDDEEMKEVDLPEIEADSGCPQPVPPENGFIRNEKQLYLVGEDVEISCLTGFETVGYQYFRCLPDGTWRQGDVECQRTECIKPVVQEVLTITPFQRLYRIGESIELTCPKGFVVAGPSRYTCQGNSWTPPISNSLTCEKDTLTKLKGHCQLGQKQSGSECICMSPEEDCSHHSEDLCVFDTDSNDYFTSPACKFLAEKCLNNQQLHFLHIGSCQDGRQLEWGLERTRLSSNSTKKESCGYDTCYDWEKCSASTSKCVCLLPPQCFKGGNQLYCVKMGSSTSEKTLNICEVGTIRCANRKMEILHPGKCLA
human complement protein C5, sequence (P01031 19-673 limits assumed, chain 1 of 2): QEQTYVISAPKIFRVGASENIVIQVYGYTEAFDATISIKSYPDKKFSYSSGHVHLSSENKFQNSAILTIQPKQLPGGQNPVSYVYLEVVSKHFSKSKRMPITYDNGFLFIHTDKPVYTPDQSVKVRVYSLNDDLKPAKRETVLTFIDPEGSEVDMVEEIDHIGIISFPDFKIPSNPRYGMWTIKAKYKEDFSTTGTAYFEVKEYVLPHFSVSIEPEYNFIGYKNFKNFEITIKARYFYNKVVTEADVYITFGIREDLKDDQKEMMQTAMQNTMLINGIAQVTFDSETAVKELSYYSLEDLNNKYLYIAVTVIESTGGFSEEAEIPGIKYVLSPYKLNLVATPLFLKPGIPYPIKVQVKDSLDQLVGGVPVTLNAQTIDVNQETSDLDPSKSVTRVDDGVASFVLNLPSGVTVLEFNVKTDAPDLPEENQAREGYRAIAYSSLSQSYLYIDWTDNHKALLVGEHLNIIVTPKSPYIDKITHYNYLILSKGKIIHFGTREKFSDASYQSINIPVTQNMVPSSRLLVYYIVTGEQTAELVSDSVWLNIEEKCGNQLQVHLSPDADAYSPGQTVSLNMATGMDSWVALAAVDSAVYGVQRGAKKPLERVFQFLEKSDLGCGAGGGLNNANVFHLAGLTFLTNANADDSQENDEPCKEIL
human complement protein C5, sequence (P01031 678-1676 limits assumed, chain 2 of 2): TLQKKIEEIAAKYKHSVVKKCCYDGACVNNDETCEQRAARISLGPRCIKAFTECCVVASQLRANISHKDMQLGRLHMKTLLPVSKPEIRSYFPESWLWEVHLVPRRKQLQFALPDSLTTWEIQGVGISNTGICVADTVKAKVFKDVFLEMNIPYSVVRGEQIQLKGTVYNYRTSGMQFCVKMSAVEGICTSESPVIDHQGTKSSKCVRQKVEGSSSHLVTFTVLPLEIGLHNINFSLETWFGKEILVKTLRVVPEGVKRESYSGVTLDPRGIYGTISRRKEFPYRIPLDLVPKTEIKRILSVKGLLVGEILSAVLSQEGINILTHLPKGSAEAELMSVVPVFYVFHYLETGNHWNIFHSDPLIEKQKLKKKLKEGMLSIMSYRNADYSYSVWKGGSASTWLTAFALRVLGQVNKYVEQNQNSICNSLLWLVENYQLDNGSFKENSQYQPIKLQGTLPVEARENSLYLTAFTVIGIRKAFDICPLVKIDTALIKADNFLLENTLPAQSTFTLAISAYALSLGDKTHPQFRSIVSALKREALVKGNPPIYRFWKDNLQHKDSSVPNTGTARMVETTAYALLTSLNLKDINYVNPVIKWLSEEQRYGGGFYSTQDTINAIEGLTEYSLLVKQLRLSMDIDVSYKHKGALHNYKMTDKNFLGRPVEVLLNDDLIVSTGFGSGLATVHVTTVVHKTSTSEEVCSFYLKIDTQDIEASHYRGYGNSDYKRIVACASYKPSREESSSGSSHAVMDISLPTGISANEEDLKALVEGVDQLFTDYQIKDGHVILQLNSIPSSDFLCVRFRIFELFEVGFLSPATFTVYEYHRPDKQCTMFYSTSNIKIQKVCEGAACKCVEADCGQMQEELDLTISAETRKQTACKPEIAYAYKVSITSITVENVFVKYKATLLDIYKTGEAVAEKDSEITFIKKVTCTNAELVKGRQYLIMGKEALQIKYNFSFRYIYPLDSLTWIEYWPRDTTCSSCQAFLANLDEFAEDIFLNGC

B1: C601HFKC4 HuG4K (antibody, human IgG4 S228P, kappa)
heavy: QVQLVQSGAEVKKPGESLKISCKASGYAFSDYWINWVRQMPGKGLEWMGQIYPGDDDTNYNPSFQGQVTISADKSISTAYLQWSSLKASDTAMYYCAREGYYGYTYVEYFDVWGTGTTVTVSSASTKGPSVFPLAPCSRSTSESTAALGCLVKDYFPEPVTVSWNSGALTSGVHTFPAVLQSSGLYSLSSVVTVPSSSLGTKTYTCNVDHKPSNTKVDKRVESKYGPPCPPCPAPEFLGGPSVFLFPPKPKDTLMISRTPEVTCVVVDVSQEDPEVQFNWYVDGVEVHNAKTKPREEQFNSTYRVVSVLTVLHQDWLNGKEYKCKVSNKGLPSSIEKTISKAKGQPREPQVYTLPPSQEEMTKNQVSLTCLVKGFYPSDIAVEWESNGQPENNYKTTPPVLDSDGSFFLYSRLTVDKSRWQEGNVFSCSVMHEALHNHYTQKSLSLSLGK
light: QIVLTQSPATLSLSPGERATLSCRASSSVSYLHWYQQKPGQSPRLWIYDTSKRATGIPARFSGSGSGTDYTLTISSLEPEDFAVYYCQQWTSNPLTFGQGTKLEIKRTVAAPSVFIFPPSDEQLKSGTASVVCLLNNFYPREAKVQWKVDNALQSGNSQESVTEQDSKDSTYSLSSTLTLSKADYEKHKVYACEVTHQGLSSPVTKSFNRGEC
notes: also called 3713; clone 3713
As to B1, the binding result in test [1] is recorded as “no binding”.

B2: MoC601 HuG4K (chimeric C601 antibody) (antibody, human IgG4 S228P, kappa, V domains shown)
VH: QVQLQQSGAELVKPGASVKISCKASGYAFSDYWMNWVKQRPGKGLEWIGQIYPGDDDTNYNGKFKGKATLTADKSSSTAYMQLSSLTSEDSAVYFCAREGYYGYTYVEYFDVWGTGTTVTVSS
VL: QIVLTQSPAIMSVSPGEKVTLTCSASSSVSYMHWYQQKSGTSPKRWIYDTSKLASGVPARFSGSGSGTSYSLTISSMEAEDAATYYCQQWTSNPLTFGAGTKLELRR
notes: also called chimeric antibody; chimeric 1C9
The Kd is the free concentration of one partner at which half of the binding sites on the other are occupied at equilibrium, for simple one-to-one binding. A higher Kd goes with lower affinity. One may read the koff as a measure of how fast the partners let go of each other. A low value points to a long-lived complex. For orientation: kon means a measure of how fast the partners come together. The low end stands for slow association, the high end for fast association. With B2, in test [2], the affinity, expressed as Kd, was 0.36 nM; the koff is 0.00025 s⁻¹; the kon is 690000 M⁻¹ s⁻¹.
